Tested on: T1, Nc1ncnc2c1ncn2[C@@H]1O[C@H](COP(=O)(O)OP(=O)(O)OP(=O)(O)O)[C@@H](O)[C@H]1O
T1 construct: made in house; host or cells: Sf9 insect cells, baculovirus, co-infected with Cak1-HA3 (Cdc28-His6); bacteria (MBP-Clb2)
Test: purified protein, by the assay type
Type: biochemical, Saccharomyces cerevisiae
Conditions: other: Cdc28 · MBP-Clb2; pH 7.4; 23.0 °C

Cdc28 · MBP-Clb2 (Saccharomyces cerevisiae S288C), sequence (chain, as listed by the source S288C): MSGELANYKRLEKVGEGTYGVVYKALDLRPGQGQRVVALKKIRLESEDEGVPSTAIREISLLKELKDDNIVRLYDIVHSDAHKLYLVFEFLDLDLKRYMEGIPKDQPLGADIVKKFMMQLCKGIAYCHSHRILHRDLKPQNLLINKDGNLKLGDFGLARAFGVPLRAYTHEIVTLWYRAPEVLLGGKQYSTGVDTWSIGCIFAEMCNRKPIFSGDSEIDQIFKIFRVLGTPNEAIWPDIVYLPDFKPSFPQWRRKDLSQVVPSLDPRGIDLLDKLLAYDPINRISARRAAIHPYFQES

## Cdc28 · MBP-Clb2 (Saccharomyces cerevisiae S288C)
  Km: 35 µM
  kcat: 2.2 s⁻¹
  kcat/Km: 62170 M⁻¹ s⁻¹

— US20030073218A1, “High affinity inhibitors for target validation and uses thereof” (Princeton University, priority 1999, published 2003)
